As usually defined, the Km is the concentration of substrate that gives half-maximal velocity.

Series [1] concerns the target T1, PfNMNAT (Plasmodium falciparum, UniProt Q8IE38).
T1 construct: gene PF3D7_1327600
T1 sequence (Q8IE38 1-204): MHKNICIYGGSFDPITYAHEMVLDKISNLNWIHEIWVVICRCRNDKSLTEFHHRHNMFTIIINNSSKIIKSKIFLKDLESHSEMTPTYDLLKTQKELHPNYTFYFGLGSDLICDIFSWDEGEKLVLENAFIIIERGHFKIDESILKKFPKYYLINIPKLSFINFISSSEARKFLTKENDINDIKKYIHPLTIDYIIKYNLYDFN
Kind of series: pyrophosphate release assay, […] nm, […] min preincubation with inhibitor. It counts as biochemical. As to conditions: 50 µM 1a-a versus 2% DMSO control.

Substrate in series [2]: Nc1ncnc2c1ncn2[C@@H]1O[C@H](COP(=O)(O)OP(=O)(O)OP(=O)(O)O)[C@@H](O)[C@H]1O
In words: purified protein. It counts as biochemical, Plasmodium falciparum. As to conditions: 500 µM NaMN, 100 mM HEPES, 10 mM MgCl2, pH 7.5, apparent Km.

Substrate in series [3]: O=C([O-])c1ccc[n+]([C@@H]2O[C@H](COP(=O)(O)O)[C@@H](O)[C@H]2O)c1
Kind of series: purified protein. As to conditions: 500 µM ATP, 100 mM HEPES, 10 mM MgCl2, pH 7.5, apparent Km. The class given is biochemical, Plasmodium falciparum.

With `O=C(CCC(=O)Nc1ccc(Br)cc1)N/N=C/c1c2ccccc2cc2ccccc12` [1a-a], in series [1], the “inhibition at 50 μM” value is 1a-a exhibits specific activity against purified his-PfNMNAT (Figure 4A).

B1: PfNMNAT (Plasmodium falciparum 3D7) (protein)
chain: T1 sequence (Q8IE38 1-204)
On to B1, for which the Km is 19.9 ± 6.7 µM in series [2] and 35.8 ± 5.1 µM in series [3].

These data come from paper PMC3991606, “Targeting NAD^+ Metabolism in the Human Malaria Parasite Plasmodium falciparum” (PLoS ONE, 2014).
